Reference: the supplement of paper PMC12764529
± gives the half width of the 95% confidence interval.

How the values were obtained:
[1] = folding stability dG unfold from trypsin proteolysis; higher = more stable
Method in brief: (§1)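 Bayesian fitting of sequencing counts gave K50 for each design. Unfolding free energy followed by setting this against a sequence-predicted unfolded-state K50 and a shared folded-state K50, either per protease or with trypsin and chymotrypsin combined. The designs, under 80 residues and lacking cysteine, were digested in a PA-tagged cDNA display format at 11 threefold-diluted protease concentrations and without protease, and only those with AlphaFold2 dimer inter-PAE above 15 were kept.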

[2] = folding stability dG unfold from chymotrypsin proteolysis; higher = more stable
Method in brief: as §1

[3] = folding stability dG unfold (combined trypsin and chymotrypsin); higher = more stable
Method in brief: as §1

| Sequence | folding stability dG unfold [1] | folding stability dG unfold [2] | folding stability dG unfold [3] |
| --- | --- | --- | --- |
| SAGGSAKVVEKDGKLVIELEVPPDMSEEELKKLAEELAKLLPPGAKIEVKYDKETKRVVIVVELKDSAGGSA [r15_210_TrROS_Hall] | 1.64 ± 0.12 kcal/mol | 1.79 ± 0.16 kcal/mol | 1.79 ± 0.14 kcal/mol |
| SMKPPVKVRIRIYNPETGEEIATIEIEFLPDGTVKVTIEIDGKKYEIEMSLDELLEALKKLPFKIVEIEPSA [r9_470_TrROS_Hall] | 3.72 ± 0.12 kcal/mol | 3.35 ± 0.064 kcal/mol | 3.57 ± 0.1 kcal/mol |
| SAGGSAGGSAGGGIYEVDENGNPLPPRPYLVLKIGYEVGYLPDGGAGLSLNIEIYPVYDASAGGSAGGSAGG [r7_572_TrMRF] | 3.18 ± 0.2 kcal/mol | 4.25 ± 0.13 kcal/mol | 3.79 ± 0.23 kcal/mol |
| SAGGSAGGSAGKRRIYILGMDTVQVAEYLRDTGPDIKVEVFNPGQPMEEFQDNYDIVIFVSAGGSAGGSAGG [r17_225_TrROS] | 1.59 ± 0.035 kcal/mol | 2.33 ± 0.1 kcal/mol | 2.04 ± 0.16 kcal/mol |
| SAGGSAGGSAGPDKPIYVMIKFEHPGRKYTHSFEFDSPEDIEEVLDRLPPGYEIKEVEIFSAGGSAGGSAGG [r17_410_TrROS] | 0.0221 ± 0.1 kcal/mol | 0.946 ± 0.25 kcal/mol | 0.482 ± 0.2 kcal/mol |
| SAGGMKIRIPEGQEVKLKKVRFWHNGKPWKIPNMEIKVDRIDPNDNRVQIEIKHPNGRPHTFAFDIKSAGGS [r8_215_TrROS] | 0.459 ± 0.11 kcal/mol | 0.456 ± 0.13 kcal/mol | 0.512 ± 0.086 kcal/mol |
| SAGGSAGGSAGGPDFKIEPVEKKGNYELYKAYIPETGEEFFLVYYPNPKEVKIYPSDYLSAGGSAGGSAGGS [r10_172_TrMRF] | 0.754 ± 0.038 kcal/mol | 1.52 ± 0.034 kcal/mol | 1.29 ± 0.049 kcal/mol |
| SAGGSAMGTLRLGFVTGPDEEGRYEILDVTLEPGEPVLVTLRARFTFPDGDSVEVPFRFVVPPELLSAGGSA [r15_187_TrMRF] | 2.78 ± 0.038 kcal/mol | 3.15 ± 0.048 kcal/mol | 2.96 ± 0.12 kcal/mol |
| SAGGSSIKIPNPNGYEIEIEVTPDRAKIKWRMPGKEQEQEFPPGEDVTIRFPDGMPLTIKIPPPGESAGGSA [r2_57_TrROS] | 0.456 ± 0.089 kcal/mol | 0.154 ± 0.26 kcal/mol | 0.424 ± 0.13 kcal/mol |
| SAGGSAKKKEVKELTLVIKVKTEEEALKAAEELIRKLLPPDAEIVEVKVEKVKPGEVYITVKVRLKSAGGSA [r15_183_TrROS_Hall] | 2.36 ± 0.12 kcal/mol | 3.99 ± 0.14 kcal/mol | 3.67 ± 0.18 kcal/mol |
| SAGGSSIKIEKIEKHENGVKIDISVPDLSNEEEINAVKKKLAEELGLKEEDVEVSLKSENIPLPPSIGSAGG [r13_430_JUSTAS] | 0.474 ± 0.11 kcal/mol | 2.32 ± 0.21 kcal/mol | 1.75 ± 0.22 kcal/mol |
| SAGGSAMVVTVPASSLTPESIRALARENPGPVELVFPEEGRRVTVEVRGDGVVRVEEHPLDPAELASAGGSA [r15_751_JUSTAS] | -1.07 ± 0.19 kcal/mol | -0.536 ± 0.1 kcal/mol | -0.621 ± 0.083 kcal/mol |
| SAGGSAGGMVIEGRIKIVSPDGGEKEIPVVLFIPESFPDANLEELAEAIAKEILPPGYKADFEGSAGGSAGG [r6_821_TrMRF] | 0.601 ± 0.065 kcal/mol | 1 ± 0.023 kcal/mol | 0.879 ± 0.17 kcal/mol |
| DRIEIDVEMYDGYFYKIEIRWPGNGEPRELMFPGSLSEAKDFAEDLIQEQHPGAPVDEIDVEPVPMPPGDFS [r1_80_TrROS] | 0.683 ± 0.2 kcal/mol | 2.01 ± 0.05 kcal/mol | 1.69 ± 0.19 kcal/mol |
| SAGGSAPEPVEFTLGHPDGVPYRVTLTRLPDTDLYLVTVEFPGPEVTFTGVAPLEVLENIPGLTPVSAGGSA [r15_622_TrMRF] | 1.53 ± 0.035 kcal/mol | 1.88 ± 0.09 kcal/mol | 1.72 ± 0.068 kcal/mol |
| SAGPKELAKQIKEIARELARAFHPNGQPMKMEVEIEPVSIDDENGWVRLKVKIRMPNRPVKFNITIPLKSAG [r5_53_TrROS] | 2.04 ± 0.07 kcal/mol | 3.19 ± 0.12 kcal/mol | 2.72 ± 0.27 kcal/mol |
| SAGGLSGEAKLVEAEFEPETGTVRVFAEAGDELLTFEFKGTPFLPPIPASISPESLEKDEPVIRVSGSAGGS [r16_809_TrMRF] | 0.597 ± 0.059 kcal/mol | 0.143 ± 0.14 kcal/mol | 0.422 ± 0.079 kcal/mol |
| SAGGMIVTTIPGSPAIKVEIPFPETPFSATITIPIAPDGTVTADLKPHPDMSEELIEKIKELAKELLKSAGG [r13_139_JUSTAS] | 1.03 ± 0.024 kcal/mol | 0.829 ± 0.037 kcal/mol | 0.849 ± 0.092 kcal/mol |
| SITIKIPLKPGYPYALRIHFYNPNGKPREMDMNVTRKPDGEVEIPIKIPDKDIPPGQDIRIQSIEIYPMKSA [r9_359_TrROS] | 1.5 ± 0.038 kcal/mol | 2.59 ± 0.1 kcal/mol | 1.99 ± 0.26 kcal/mol |
| SAGGSMTAEELAEELAARHPDATVERSPSGVVTFRLPATGLTVTVSSGAGELRITVEDPTVPRRTLESAGGS [r16_478_JUSTAS] | 0.0944 ± 0.27 kcal/mol | -0.527 ± 0.5 kcal/mol | -0.312 ± 0.3 kcal/mol |
| SAGGSAGGSAGFYKAKLKILKTKVYSNEKGTKKKTYKPVLILEELIPPKIPKELWEKLNKSAGGSAGGSAGG [r11_318_TrMRF] | 0.836 ± 0.3 kcal/mol | 0.528 ± 0.4 kcal/mol | 0.55 ± 0.57 kcal/mol |

| Sequence | folding stability dG unfold [1] | folding stability dG unfold [2] | folding stability dG unfold [3] |
| --- | --- | --- | --- |
| SKPTLTLKLTVVVKDENGEKKTVTLTIPVSEEELEKLLKEIAKELGLKDVKVVKIEKNKNGFIKITVEVKSA [r9_1101_TrROS_Hall] | 2.16 ± 0.12 kcal/mol | 2.36 ± 0.033 kcal/mol | 2.36 ± 0.21 kcal/mol |
| SAGGSAGGSAEKGIAFILLVTEEGDLEKALETAEELKKELEEKTGKPVEVVVNIFVVEPELFSAGGSAGGSA [r18_515_TrMRF] | 1.81 ± 0.048 kcal/mol | 2.38 ± 0.084 kcal/mol | 2.24 ± 0.14 kcal/mol |
| SAGMVITISSDLSPEEVLATAQALAAELGAKKVEVERDPANPDVVTVTVEFPGLGKTVTVNVLPPELLESAG [r5_912_JUSTAS] | 1.28 ± 0.059 kcal/mol | 1.78 ± 0.065 kcal/mol | 1.57 ± 0.15 kcal/mol |
| SATETLTVVETRTVRDPAVPGTTTTETRVTEVTRPAPPPPPLSAEELARALAEAGLLERTDDGELKVVLSAG [r14_582_TrROS_Hall] | -0.559 ± 0.25 kcal/mol | -0.276 ± 0.11 kcal/mol | -0.567 ± 0.43 kcal/mol |
| SAGTREQVKAIAREIANEIWDTFPDMRGQKFKVKIKVEPEPNGWVRVKVTIQFPGGVQYTFPIWIPVESAGG [r19_194_TrROS] | 3.06 ± 0.11 kcal/mol | 4.4 ± 0.23 kcal/mol | 4.05 ± 0.23 kcal/mol |
| SAGGSAGGSAGPKPPPVYRLRIVNPDGEVYEFEVPADMSPEEIAKRLGLPPGARVELEKVSAGGSAGGSAGG [r11_340_TrROS_Hall] | 2.59 ± 0.17 kcal/mol | 3.35 ± 0.081 kcal/mol | 3.28 ± 0.28 kcal/mol |
| SAGGSAGGSAGGMAENLSPEQLRELAKELGLSEEDLEPGQVVRFRLPNGEVIEVRVEDESAGGSAGGSAGGS [r10_623_TrROS_Hall] | 1.29 ± 0.033 kcal/mol | 0.372 ± 0.13 kcal/mol | 0.913 ± 0.067 kcal/mol |
| SAGGSAGGSAGGSKPEVIKLKVKKIKVKKKKYDKNGKLVEEEEKEITVETTVFVPKEDLSAGGSAGGSAGGS [r4_425_TrROS_Hall] | -0.381 ± 0.18 kcal/mol | 0.336 ± 0.14 kcal/mol | 0.182 ± 0.17 kcal/mol |
| EEIIEKLKEEGYEIVSVSIKEVNGKKKIFIAVRRKDKPEYLLVEIDLENKEVKIKKVKKFPKGESIEDILSS [r1_383_TrROS_Hall] | 2.95 ± 0.2 kcal/mol | 3.98 ± 0.23 kcal/mol | 3.56 ± 0.27 kcal/mol |
| SAGGSAGGSPLVKTTTSVDPVGPDRTLTTSTATLPSGGTTVTTTTFLTSPDGTVPVATTTTPSASAGGSAGG [r6_471_JUSTAS] | -0.461 ± 0.15 kcal/mol | 0.24 ± 0.14 kcal/mol | -0.11 ± 0.21 kcal/mol |
| SAGGPMKVKVTLIVRDKETGEWKEVEREMTLDELRELLASLPPDAEVFVKIEVDGKTVTLSLEELKALSAGG [r13_254_TrROS_Hall] | 3.84 ± 0.17 kcal/mol | 4.32 ± 0.097 kcal/mol | 4.29 ± 0.12 kcal/mol |
| SMTLTIDLDPSVPYLVRIHFVNEDGEPYEADALTTRTPDGTAFVDIALPDDSIPPGADIKILSVEVIPLDSA [r9_359_TrMRF] | 1.63 ± 0.019 kcal/mol | 2.1 ± 0.054 kcal/mol | 1.96 ± 0.051 kcal/mol |
| SAGGKKKKVKKKKPVYRIKIKLKNGEEIEIEAKSKEEAEKAAKELLKKLFPEKKIDEIKIVEIEKLPPSAGG [r13_887_TrROS_Hall] | 2.54 ± 0.061 kcal/mol | 2.69 ± 0.12 kcal/mol | 2.69 ± 0.16 kcal/mol |
| SAGGSSVSSVTLLSSETYTEGEKTFKRTTYLVPLPDGTTAIVTTEETTPPENPPEVEVSSSTTPLPGSAGGS [r16_121_JUSTAS] | 1.25 ± 0.044 kcal/mol | 1.78 ± 0.093 kcal/mol | 1.63 ± 0.086 kcal/mol |
| SAGGDNFKIEIQFFPDGHIFILIKWPNGDWILIPVPIEYPVPKRDPDGEVKEPGPVTHTHLFLIPANDSAGG [r13_236_TrROS] | 1.88 ± 0.097 kcal/mol | 3.21 ± 0.046 kcal/mol | 2.74 ± 0.16 kcal/mol |
| SAGGSAGGSAGKIYIVKLPNETIEIEFEGTEEEAIDFAIKELEKLFPKPIPKDDIIILGGSAGGSAGGSAGG [r11_1028_TrMRF] | 1.76 ± 0.074 kcal/mol | 1.65 ± 0.043 kcal/mol | 1.71 ± 0.14 kcal/mol |
| SAGGSAGGSAGKPKTVEIEVTNEDGSKYKAKVVEVDEEKGYVLIKITNPDGSEQTILIKLSAGGSAGGSAGG [r11_742_TrROS_Hall] | 1.81 ± 0.06 kcal/mol | 2.97 ± 0.033 kcal/mol | 2.6 ± 0.1 kcal/mol |
| SAGSWIDKLPPSFTSSSPLAKRPDGTRVYAYEYTTESSPSILLVEFDASGRLRKIEKLDPETAAKAIAASAG [r5_73_JUSTAS] | 1.19 ± 0.031 kcal/mol | 1.14 ± 0.071 kcal/mol | 1.22 ± 0.11 kcal/mol |
| SEKPEVTIKIEVEEREDGYLVVRVEVTFPEDPEKVELTLEMSREEAEELAKKLAEELPGVKVKVEIVELPSA [r9_374_TrROS_Hall] | 2.41 ± 0.17 kcal/mol | 2.4 ± 0.17 kcal/mol | 2.44 ± 0.14 kcal/mol |
| SMEMTPEERLLALLREARKKHPGKKIVLSVEEIEELLGVDLSAEEIAKLLKEELGIDEVEIVEEEEPEEESA [r9_738_TrROS_Hall] | 2.11 ± 0.056 kcal/mol | 3.375 ± 0.031 kcal/mol | 3.01 ± 0.069 kcal/mol |
| SAGGSAGGNPVRYRVTITVTSPTGGSPVIELELDDPAELAEVEALAAELAAAPVTTTVTVEPIGSAGGSAGG [r6_743_JUSTAS] | 1.02 ± 0.049 kcal/mol | 0.584 ± 0.14 kcal/mol | 0.807 ± 0.072 kcal/mol |
